Results taken from publication PMC7721913 (The Journal of Cell Biology, 2020).

B1: KIF5B: kinesin heavy chain KIF5B (protein, UniProt P33176 2-963, looked up)
Kinesin-1 heavy chain: ADLAECNIKVMCRFRPLNESEVNRGDKYIAKFQGEDTVVIASKPYAFDRVFQSSTSQEQVYNDCAKKIVKDVLEGYNGTIFAYGQTSSGKTHTMEGKLHDPEGMGIIPRIVQDIFNYIYSMDENLEFHIKVSYFEIYLDKIRDLLDVSKTNLSVHEDKNRVPYVKGCTERFVCSPDEVMDTIDEGKSNRHVAVTNMNEHSSRSHSIFLINVKQENTQTEQKLSGKLYLVDLAGSEKVSKTGAEGAVLDEAKNINKSLSALGNVISALAEGSTYVPYRDSKMTRILQDSLGGNCRTTIVICCSPSSYNESETKSTLLFGQRAKTIKNTVCVNVELTAEQWKKKYEKEKEKNKILRNTIQWLENELNRWRNGETVPIDEQFDKEKANLEAFTVDKDITLTNDKPATAIGVIGNFTDAERRKCEEEIAKLYKQLDDKDEEINQQSQLVEKLKTQMLDQEELLASTRRDQDNMQAELNRLQAENDASKEEVKEVLQALEELAVNYDQKSQEVEDKTKEYELLSDELNQKSATLASIDAELQKLKEMTNHQKKRAAEMMASLLKDLAEIGIAVGNNDVKQPEGTGMIDEEFTVARLYISKMKSEVKTMVKRCKQLESTQTESNKKMEENEKELAACQLRISQHEAKIKSLTEYLQNVEQKKRQLEESVDALSEELVQLRAQEKVHEMEKEHLNKVQTANEVKQAVEQQIQSHRETHQKQISSLRDEVEAKAKLITDLQDQNQKMMLEQERLRVEHEKLKATDQEKSRKLHELTVMQDRREQARQDLKGLEETVAKELQTLHNLRKLFVQDLATRVKKSAEIDSDDTGGSAAQKQKISFLENNLEQLTKVHKQLVRDNADLRCELPKLEKRLRATAERVKALESALKEAKENASRDRKRYQQEVDRIKEAVRSKNMARRGHSAQIAKPIRPGQHPAASPTHPSAIRGGGAFVQNSQPVAVRGGGGKQV
B2: KIF5A^R280H: KIF5A mutant associated with CMT2 (protein)
chain: MAETNNECSIKVLCRFRPLNQAEILRGDKFIPIFQGDDSVIIGGKPYVFDRVFPPNTTQEQVYHACAMQIVKDVLAGYNGTIFAYGQTSSGKTHTMEGKLHDPQLMGIIPRIARDIFNHIYSMDENLEFHIKVSYFEIYLDKIRDLLDVTKTNLSVHEDKNRVPFVKGCTERFVSSPEEILDVIDEGKSNRHVAVTNMNEHSSRSHSIFLINIKQENVETEQKLSGKLYLVDLAGSEKVSKTGAEGAVLDEAKNINKSLSALGNVISALAEGTKSYVPYHDSKMTRILQDSLGGNCRTTMFICCSPSSYNDAETKSTLMFGQRAKTIKNTASVNLELTAEQWKKKYEKEKEKTKAQKETIAKLEAELSRWRNGENVPETERLAGEDSALGAELCEETPVNDNSSIVVRIAPEERQKYEEEIRRLYKQLDDKDDEINQQSQLIEKLKQQMLDQEELLVSTRGDNEKVQRELSHLQSENDAAKDEVKEVLQALEELAVNYDQKSQEVEEKSQQNQLLVDELSQKVATMLSLESELQRLQEVSGHQRKRIAEVLNGLMRDLSEFSVIVGNGEIKLPVEISGAIEEEFTVARLYISKIKSEVKSVVKRCRQLENLQVECHRKMEVTGRELSSCQLLISQHEAKIRSLTEYMQTVELKKRHLEESYDSLSDELARLQAHETVHEVALKDKEPDTQDAEEVKKALELQMENHREAHHRQLARLRDEINEKQKTIDELKDLNQKLQLELEKLQADYERLKNEENEKSAKLQELTFLYERHEQSKQDLKGLEETVARELQTLHNLRKLFVQDVTTRVKKSAEMEPEDSGGIHSQKQKISFLENNLEQLTKVHKQLVRDNADLRCELPKLEKRLRATAERVKALEGALKEAKEGAMKDKRRYQQEVDRIKEAVRYKSSGKRGHSAQIAKPVRPGHYPASSPTNPYGTRSPECISYTNNLFQNYQNLHLQAAPSSTSDMYFASSGATSVAPLASYQKANMDNGNATDINDNRSDLPCGYEAEDQAKLFPLHQETAAS
modifications: left off: FLAG, N-terminal, kept

What was measured:
[1] = test system: DRG neurons; DRGs and sciatic nerve of P1 mice; assay: Immunostaining of KIF5s in DRG neurons, DRGs and sciatic nerve; design: species or system rat; mouse; details: microfluidic DRG neurons, DRGs and sciatic nerves in vivo
[2] = test system: CB and distal axon compartments of DRG neurons; assay: Western blot of KIF5 and KLC in cell body and distal axon lysates; assay type: cell-based, rat; details: Campenot CB vs distal axon lysates
HA-SFPQ = assay: Coimmunoprecipitation of HA-SFPQ with KLC1/KIF5A constructs in HEK 293T cells; details: KIF5A^R280H vs WT KIF5A, n = 7, P = 0.0019
[3] = test system: mitochondria in axons of DRG neurons; assay: Mitochondrial transport assay; assay type: cell-based, rat; details: vs control; ∼115 mitochondria, 10 axons, three experiments
[4] = test system: bclw and β actin mRNA in DRG neurons; assay: Quantitative RT-PCR of mRNA in cell bodies and distal axons; assay type: cell-based, rat; details: vs WT control; normalized to gapdh; 3 independent experiments

| Molecule | axonal localization of KIF5B by immunostaining (in words) [1] | compartment localization (in words) [2] | reduction in binding to SFPQ (HA-SFPQ) | mitochondria transport (in words) [3] | axonal bclw mRNA level (in words) [4] | axonal β actin mRNA level (in words) [4] |
| --- | --- | --- | --- | --- | --- | --- |
| B1 | largely excluded from axons | preferentially localizes in the CB compartment |  |  |  |  |
| B2 |  |  | ~50% | did not alter mitochondria transport | significantly decreased | not affected |
